# Substitutions are numbered along the chain they refer to. Bridges are numbered along the chain shown (N, C = ends). Where no end group is shown, it is not given here. [ ]: non-standard residue; d: D form. The star is where a group is joined. Acetyl(2-(4-imidazolyl)) = O=C(Cc1c[nH]cn1)*; Aib = CC(C)(N)C(=O)O
# T1: human GIP receptor (human, UniProt P48546 22-466)
# T1 sequence (looked up): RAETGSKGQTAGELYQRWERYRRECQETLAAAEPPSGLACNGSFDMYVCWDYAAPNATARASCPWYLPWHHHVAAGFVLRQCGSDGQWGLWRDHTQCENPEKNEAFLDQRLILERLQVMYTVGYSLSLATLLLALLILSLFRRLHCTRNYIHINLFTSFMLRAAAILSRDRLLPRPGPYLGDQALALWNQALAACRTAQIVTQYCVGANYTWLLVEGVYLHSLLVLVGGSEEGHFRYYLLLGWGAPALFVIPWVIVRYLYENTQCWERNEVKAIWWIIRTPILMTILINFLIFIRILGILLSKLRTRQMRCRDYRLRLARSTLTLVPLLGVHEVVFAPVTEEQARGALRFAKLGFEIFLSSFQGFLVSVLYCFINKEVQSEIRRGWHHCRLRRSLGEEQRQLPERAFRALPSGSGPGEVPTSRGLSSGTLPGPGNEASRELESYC
# B1: triple agonist of SEQ ID NO: 1 (peptide)
# peptide: H[Aib]QGTFTSDVSSYLDGQAAKEFIAWLVKGC
# B2: triple agonist of SEQ ID NO: 4 (peptide)
# peptide: H[Aib]QGTFTSDVSSYLLGQQQKEFIAWLVKGC
# B3: triple agonist of SEQ ID NO: 34 (peptide)
# peptide: H[Aib]QGTFTSDYSKYLDEKRQKEFVNWLLAQKC
# modifications: bridge 16-20
# B4: triple agonist of SEQ ID NO: 35 (peptide)
# peptide: H[Aib]QGTFTSDYSIAMDEIHQKDFVNWLLNTKC
# modifications: bridge 16-20
# B5: triple agonist of SEQ ID NO: 42 (peptide)
# peptide: Y[Aib]QGTFTSDYSKYLDEKRAKEFVQWLLDHHPSSGQPPPSC
# modifications: bridge 16-20
# B6: triple agonist of SEQ ID NO: 43 (peptide)
# peptide: Y[Aib]QGTFTSDYSKYLDEKRAKEFVQWLLDHHCSSGQPPPS
# modifications: bridge 16-20
# B7: triple agonist of SEQ ID NO: 44 (peptide)
# peptide: HGQGTFTSDCSKQLDGQAAQEFVAWLLAGGPSSGAPPPS
# B8: triple agonist of SEQ ID NO: 5 (peptide)
# peptide: H[Aib]QGTFTSDVSSYLLGQQQKEFIAWLVKGGGPSSGAPPPSC
# B9: triple agonist of SEQ ID NO: 45 (peptide)
# peptide: B7 peptide with Q13Y, L14M, E21D
# B10: triple agonist of SEQ ID NO: 46 (peptide)
# peptide: B7 peptide with Q13Y, G16E, A18H
# B11: triple agonist of SEQ ID NO: 47 (peptide)
# peptide: B7 peptide with Q13Y, A18R
# B12: triple agonist of SEQ ID NO: 48 (peptide)
# peptide: B7 peptide with Q13Y, A18R, E21D, A24N
# B13: triple agonist of SEQ ID NO: 49 (peptide)
# peptide: {Acetyl(2-(4-imidazolyl))}-[Aib]QGTFTSDYSICMDEIHQKDFVNWLLNTK
# modifications: bridge 15-19
# B14: triple agonist of SEQ ID NO: 50 (peptide)
# peptide: H[Aib]QGTFTSDYSKYLDEKRAKEFVQWLLDHHPSSGQPPPSC
# modifications: bridge 16-20; ends not checked
# B15: triple agonist of SEQ ID NO: 51 (peptide)
# peptide: H[Aib]QGTFTSDYSKYLDEKRQKEFVQWLLNTC
# modifications: bridge 16-20; ends not checked
# B16: triple agonist of SEQ ID NO: 52 (peptide)
# peptide: H[Aib]QGTFTSDYSKYLDEKRQKEFVQWLLDTC
# modifications: bridge 16-20; ends not checked
# B17: triple agonist of SEQ ID NO: 53 (peptide)
# peptide: H[Aib]EGTFTSDYSIAMDEIHQKDFVNWLLAQC
# modifications: bridge 16-20
# B18: triple agonist of SEQ ID NO: 54 (peptide)
# peptide: H[Aib]EGTFTSDYSIAMDEIHQKDFVDWLLAEC
# modifications: bridge 16-20; ends not checked
# B19: triple agonist of SEQ ID NO: 6 (peptide)
# peptide: H[Aib]QGTFTSDVSSYLDGQAAKEFVAWLLKGC
# modifications: ends and bridges not checked
# B20: triple agonist of SEQ ID NO: 55 (peptide)
# peptide: H[Aib]QGTFTSDYSIAMDEIHQKDFVNWLLAQC
# modifications: bridge 16-20
# B21: triple agonist of SEQ ID NO: 57 (peptide)
# peptide: H[Aib]QGTFTSDYSIAMDEIHQKDFVNWLLNTC
# modifications: bridge 16-20; ends not checked
# B22: triple agonist of SEQ ID NO: 58 (peptide)
# peptide: H[Aib]QGTFTSDYSKYLDEKRQKEFVQWLLNTKC
# modifications: bridge 16-20; ends not checked
# B23: triple agonist of SEQ ID NO: 59 (peptide)
# peptide: [Acetyl(2-(4-imidazolyl))][Aib]QGTFTSDYSICMDEKHQKDFVNWLLNTK
# modifications: bridge 16-20; ends not checked
# B24: triple agonist of SEQ ID NO: 60 (peptide)
# peptide: [Acetyl(2-(4-imidazolyl))][Aib]QGTFTSDYSIAMDEKHCKDFVNWLLNTK
# modifications: bridge 16-20; ends not checked
# B25: triple agonist of SEQ ID NO: 61 (peptide)
# peptide: [Acetyl(2-(4-imidazolyl))][Aib]QGTFTSDYSIAMDEIACKDFVNWLLNTK
# modifications: bridge 16-20; ends not checked
# Biological target: human GLP-1 receptor (human, UniProt P43220 24-463)
# Test: cell-based or functional assay
row,Binder,"In vitro activity (%) vs. GLP-1, cAMP EC50"
1,B1,3.2%
2,B2,8.5%
3,B3,19.1%
4,B4,7.5%
5,B5,33.9%
6,B6,12.6%
7,B7,1.3%
8,B8,42.1%
9,B9,6.6%
10,B10,1.4%
11,B11,2.4%
12,B12,1.5%
13,B13,29.8%
14,B14,67.4%
15,B15,14.4%
16,B16,44.1%
17,B17,161%
18,B18,30.6%
19,B19,17%
20,B20,27.1%
21,B21,11.7%
22,B22,39.1%
23,B23,40.3%
24,B24,106%
25,B25,59.8%

# Biological target: human GCG receptor (human, UniProt P47871 26-477)
# Test: cell-based or functional assay
# Sequence of human GCG receptor (P47871 26-477): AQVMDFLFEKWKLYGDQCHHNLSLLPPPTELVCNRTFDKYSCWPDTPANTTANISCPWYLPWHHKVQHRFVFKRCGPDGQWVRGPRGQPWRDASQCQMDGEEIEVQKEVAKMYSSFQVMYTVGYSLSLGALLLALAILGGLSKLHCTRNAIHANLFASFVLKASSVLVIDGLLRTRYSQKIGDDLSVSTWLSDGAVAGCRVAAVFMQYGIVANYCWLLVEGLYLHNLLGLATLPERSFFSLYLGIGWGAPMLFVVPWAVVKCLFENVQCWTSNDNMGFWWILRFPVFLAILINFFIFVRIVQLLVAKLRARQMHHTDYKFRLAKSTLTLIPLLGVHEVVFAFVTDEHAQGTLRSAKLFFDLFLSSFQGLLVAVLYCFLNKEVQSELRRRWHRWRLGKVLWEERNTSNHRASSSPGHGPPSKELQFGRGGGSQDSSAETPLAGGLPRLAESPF
row,Binder,"In vitro activity (%) vs. Glucagon, cAMP EC50"
1,B1,< 0.1%
2,B2,< 0.1%
3,B3,0.92%
4,B4,< 0.1%
5,B5,206%
6,B6,88.4%
7,B7,< 0.1%
8,B8,< 0.1%
9,B9,< 0.1%
10,B10,< 0.1%
11,B11,< 0.1%
12,B12,< 0.1%
13,B13,< 0.1%
14,B14,50.5%
15,B15,2%
16,B16,7.5%
17,B17,8.4%
18,B18,1.4%
19,B19,< 0.1%
20,B20,0.7%
21,B21,< 0.1%
22,B22,2.6%
23,B23,< 0.1%
24,B24,< 0.1%
25,B25,< 0.1%

# Biological target: T1, human GIP receptor
# Test: cell-based or functional assay
row,Binder,"In vitro activity (%) vs. GIP, cAMP EC50"
1,B1,< 0.1%
2,B2,< 0.1%
3,B3,0.6%
4,B4,1.3%
5,B5,7.8%
6,B6,3.7%
7,B7,< 0.1%
8,B8,< 0.1%
9,B9,< 0.1%
10,B10,< 0.1%
11,B11,< 0.1%
12,B12,< 0.1%
13,B13,3.3%
14,B14,2.7%
15,B15,0.1%
16,B16,0.3%
17,B17,1.3%
18,B18,0.1%
19,B19,< 0.1%
20,B20,2.4%
21,B21,0.3%
22,B22,0.2%
23,B23,4%
24,B24,8.2%
25,B25,2.8%

# From US20220088148A1 (HANMI PHARM, published 2022)
